In patent publication US9994881B2, “Functionalized carboxylic acids and alcohols by reverse fatty acid oxidation in engineered microbes” (William Marsh Rice University, priority 2011, dated 2018):
Marks after values point to notes of the source that are not given here.

Key:
[1] = target: T1, E. coli YciA (acyl-CoA thioesterase, NP_415769.1), wild type (Escherichia coli, UniProt P0A8Z0); assay: Thioesterase kinetics (production of TNB at 412 nm); conditions: pH 7.5, 200 mM KCl, DTNB, 25° C.
T1 sequence (P0A8Z0 1-132): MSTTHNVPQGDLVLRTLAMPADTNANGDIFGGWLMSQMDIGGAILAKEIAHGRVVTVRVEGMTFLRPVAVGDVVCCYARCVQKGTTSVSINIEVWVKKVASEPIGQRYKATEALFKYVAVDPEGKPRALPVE
Protocol: Cells were lysed using Bacterial Protein Extraction Reagent (B-PER) (Thermo Scientific, Waltham, Mass.) as per the prescribed protocol in order to obtain the supernatant containing the active enzymes.
For kinetic characterization, an appropriate amount of enzyme was established by checking linear range near predicted KM values. Then, the rates were measured for a range of substrates in order to establish kcat and KM. In the cases of FadB for the crotonase reaction and FadA in the “forward” thiolase reaction coupled with HBD, substrate saturation could not be established, as such, the kcat/KM for the reaction was determined by dividing the linear slope of Velocity vs. [Substrate] by the amount of enzyme used in the assays. For reactions that could be saturated, Velocity vs. [Substrate] was fitted by the EnzKIN Matlab module (mathworks.com/matlabcentral/fileexchange/26653) to establish Vmax and KM.
Thioesterase activity was monitored by following the production of TNB at 412 nm (ε=4.3 mM^−1 cm^−1)^30. Reactions were carried out in the presence of 100 mM Tris pH 7.5, 200 mM KCl, 25 mM DTNB and 200 μM of the ‘-CoA’ substrate in a volume of 200 μL at 25° C.

[2] = forward thiolase assay (biosynthetic direction), coupled with caHBD; assay type: biochemical; conditions: substrate Acetyl-CoA; supernatant fraction; AtoB expressed from pCA24N, FadA from pUCBB-ntH6
Protocol: (§1) Cultures for enzymatic assays were grown overnight in 100 mL of LB media at 37° C. in 250 mL baffled flasks (Wheaton Industries, Inc., Millville, N.J.) in E. coli BL21 (DE3) cells induced with either 1 mM IPTG (pCA24N, pTrcHis2A) or 1 mM Arabinose (pUCBB-pBAD) at an OD600˜0.6, or expressed constitutively (pUCBB-ntH6). Reactions were monitored on either a Synergy HT plate reader (BioTek Instruments, Inc., Winooski, Vt.) at 25° C. (for reactions monitored at 300 nm or higher) or in a Biomate 5 Spectrophotometer (Thermo Scientific, Waltham, Mass.) for reactions at 263 nm. […]
(§2) For kinetic characterization, his-tagged proteins of AtoB, FadA, FadB, caHBD, egTER were purified from the B-PER supernatant fractions using Talon Metal Affinity Resin (Clontech Laboratories, Inc., Mountain View, Calif.) using gravity purification. […] Enzyme concentration was established by measuring the absorbance at […] and extinction coefficients predicted for each enzyme by the ProtParam program (web.expasy.org/protparam/).
(§3) For kinetic characterization, an appropriate amount of enzyme was established by checking linear range near predicted KM values. Then, the rates were measured for a range of substrates in order to establish kcat and KM. […]

[3] = thiolase activity in the reverse direction (loss of acetoacetyl-CoA at 303 nm); assay type: biochemical; conditions: substrate Acetoacetyl-CoA; supernatant fraction; AtoB expressed from pCA24N, FadA from pUCBB-ntH6
Protocol: as §1, §2, §3

Molecule	kcat [1] [s⁻¹]	Specific Activity [2]	Specific Activity [3]
CC(=O)SCCNC(=O)CCNC(=O)[C@H](O)C(C)(C)COP(=O)(O)OP(=O)(O)OC[C@H]1O[C@@H](n2cnc3c(N)ncnc32)[C@H](O)[C@@H]1OP(=O)(O)O [Acetyl-CoA]	6.9 ± 0.1		
AtoB: E. coli thiolase with higher specificity for short-chain acyl-CoA molecules		0.919 ± 0.002^b μmol/mg/min	0.36 ± 0.05^b μmol/mg/min
